Paper PMC3713617
Positions count from the first letter of the chain named. Where two headings read alike, the source gives them in different places.

Key:
[1] = biological target: Helicobacter pylori ferric uptake regulator, wildtype (HpFurWT) (H. pylori) (UniProt O25671); assay: cross-linking
HpFurE5A [2] = biological target: T1, HpFurE5A (Helicobacter pylori, UniProt O25671 1-150, E5A); assay: competition
T1 sequence: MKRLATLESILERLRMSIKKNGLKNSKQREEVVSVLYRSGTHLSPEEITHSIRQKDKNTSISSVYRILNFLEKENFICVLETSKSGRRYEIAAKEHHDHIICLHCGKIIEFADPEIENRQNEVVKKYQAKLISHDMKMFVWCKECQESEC

HpFurE5A [3] = biological target: T1, HpFurE5A; assay: fluorescence anisotropy
HpFurA92T [4] = biological target: T2, HpFurA92T (Helicobacter pylori, UniProt O25671 1-150, A92T); assay: fluorescence anisotropy
T2 sequence: T1 sequence with A5E, A92T

HpFurH134Y [5] = biological target: T3, HpFurH134Y (Helicobacter pylori, UniProt O25671 1-150, H134Y); assay: fluorescence anisotropy
T3 sequence: T1 sequence with A5E, H134Y

HpFurWT [6] = biological target: T4, HpFurWT (Helicobacter pylori, UniProt O25671 1-150); assay: fluorescence anisotropy
T4 sequence: T1 sequence with A5E

HpFurA92T [7] = biological target: T2, HpFurA92T; assay: competition
HpFurA92T [8] = biological target: T2, HpFurA92T; assay: fluorescence anisotropy; remark: listed apart in the source
HpFurH134Y [9] = biological target: T3, HpFurH134Y; assay: fluorescence anisotropy; remark: listed apart in the source
HpFurWT [10] = biological target: T4, HpFurWT; assay: fluorescence anisotropy; remark: listed apart in the source

Helicobacter pylori ferric uptake regulator, wildtype (HpFurWT) (from UniProt O25671 1-150) (natural protein)
stoichiometry N [1]: 2

B1: amiE Fur box scrambled (GT repeats) (dsDNA)
DNA 1: TGCCCCGTGTGTGTGTGTGTATTAA
DNA 2: TTAATACACACACACACACGGGGCA
binding result (HpFurE5A [2]): no binding

B2: amiE Fur box duplex (dsDNA)
DNA 1: TGCCCCAATAATCATAATGATTAA
DNA 2: TTAATCATTATGATTATTGGGGCA
Kd (HpFurE5A [3]): 2 ± 1 nM
Kd (HpFurA92T [4]): 15 ± 2 nM
Kd (HpFurH134Y [5]): 6 ± 1 nM
Kd (HpFurWT [6]): 16 ± 2 nM

B3: pfr scrambled (GT repeats) (dsDNA)
DNA 1: TTCATTAGTGTGTATGCTAT
DNA 2: ATAGCATACACACTAATGAA
binding result (HpFurA92T [7]): no binding

B4: pfr apo-Fur binding site duplex (dsDNA)
DNA 1: TTCATTATCATTTATGCTAT
DNA 2: ATAGCATAAATGATAATGAA
Kd (HpFurA92T [8]): 13 ± 1 nM
Kd (HpFurH134Y [9]): 8 ± 1 nM
Kd (HpFurWT [10]): 43 ± 2 nM
